Data as given in publication PMC5394233, “Structural and functional analysis of the human POT1-TPP1 telomeric complex” (Nature Communications, 2017).

Legend:
flPOT1 C591W;TPP1(87) = flPOT1 C591W;TPP1(87) (Homo sapiens;Homo sapiens, UniProt Q9NUX5;Q96AP0 1-634;1-458, C591W|); test: fluorescence polarization; FP: 20 mM Hepes pH 7.5, 100 mM KCl, 2 mM MgCl2, 1 mM EDTA, 2 mM DTT, 1 mg/ml BSA, 5% glycerol, 75 nM polyT50 competitor, 2.5 nM probe, room temperature 30 min; conditions: protein: recombinant;recombinant, tags: N-terminal His6-pMocr, TEV-cleaved;N-terminal His6-MBP, copies: 1;1, label: 5' 6-FAM, single strand
flPOT1 C591W;TPP1(87), sequence (Q9NUX5 whole entry C591W, chain 1 of 2): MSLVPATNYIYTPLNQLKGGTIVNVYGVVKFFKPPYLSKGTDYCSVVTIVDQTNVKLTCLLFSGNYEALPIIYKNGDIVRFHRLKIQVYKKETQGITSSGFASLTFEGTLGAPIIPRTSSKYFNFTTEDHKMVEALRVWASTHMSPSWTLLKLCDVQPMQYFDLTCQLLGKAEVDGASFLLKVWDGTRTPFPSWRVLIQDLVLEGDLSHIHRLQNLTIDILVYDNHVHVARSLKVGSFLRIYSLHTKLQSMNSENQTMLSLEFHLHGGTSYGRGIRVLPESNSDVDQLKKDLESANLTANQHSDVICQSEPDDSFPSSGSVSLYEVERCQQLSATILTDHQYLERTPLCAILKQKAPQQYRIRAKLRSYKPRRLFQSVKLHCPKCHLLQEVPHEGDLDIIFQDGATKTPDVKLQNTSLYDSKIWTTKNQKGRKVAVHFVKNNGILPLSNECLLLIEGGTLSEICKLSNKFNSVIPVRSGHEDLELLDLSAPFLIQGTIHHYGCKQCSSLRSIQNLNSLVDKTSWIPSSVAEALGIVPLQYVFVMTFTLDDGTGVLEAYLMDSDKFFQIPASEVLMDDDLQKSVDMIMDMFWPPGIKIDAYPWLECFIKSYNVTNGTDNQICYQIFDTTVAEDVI
flPOT1 C591W;TPP1(87), sequence (Q96AP0 whole entry, chain 2 of 2): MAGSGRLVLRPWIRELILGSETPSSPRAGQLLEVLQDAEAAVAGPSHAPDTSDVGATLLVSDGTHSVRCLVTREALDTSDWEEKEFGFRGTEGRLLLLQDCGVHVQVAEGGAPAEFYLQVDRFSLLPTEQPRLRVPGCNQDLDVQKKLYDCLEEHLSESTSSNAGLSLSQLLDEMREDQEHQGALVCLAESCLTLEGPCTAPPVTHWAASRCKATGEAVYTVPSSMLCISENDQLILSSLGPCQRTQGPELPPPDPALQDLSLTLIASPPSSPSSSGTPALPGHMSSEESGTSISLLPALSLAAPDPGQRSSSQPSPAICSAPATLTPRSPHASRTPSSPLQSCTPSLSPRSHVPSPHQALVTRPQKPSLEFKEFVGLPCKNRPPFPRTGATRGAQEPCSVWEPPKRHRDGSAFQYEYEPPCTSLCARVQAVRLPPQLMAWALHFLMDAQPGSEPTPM

POT1C = target: T1, POT1C (Homo sapiens, UniProt Q9NUX5 330-634); test: as above; conditions: protein: recombinant; tags: N-terminal His6-pMocr, TEV-cleaved; label: 5' 6-FAM; single strand
T1 sequence: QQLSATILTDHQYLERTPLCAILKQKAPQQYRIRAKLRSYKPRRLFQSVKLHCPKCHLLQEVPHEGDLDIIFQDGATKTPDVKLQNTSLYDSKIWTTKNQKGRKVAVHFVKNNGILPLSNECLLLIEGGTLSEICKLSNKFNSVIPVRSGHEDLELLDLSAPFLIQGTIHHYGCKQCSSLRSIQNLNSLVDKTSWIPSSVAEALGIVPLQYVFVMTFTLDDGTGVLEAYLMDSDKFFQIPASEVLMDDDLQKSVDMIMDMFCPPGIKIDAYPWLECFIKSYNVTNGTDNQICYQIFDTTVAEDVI

flPOT1 Q623H;TPP1(87) = flPOT1 Q623H;TPP1(87) (Homo sapiens;Homo sapiens, UniProt Q9NUX5;Q96AP0 1-634;1-458, Q623H|); test: as above; conditions: protein: recombinant;recombinant, tags: N-terminal His6-pMocr, TEV-cleaved;N-terminal His6-MBP, copies: 1;1, label: 5' 6-FAM, single strand
flPOT1 Q623H;TPP1(87), sequence (Q9NUX5 whole entry Q623H, chain 1 of 2): as the sequence (Q9NUX5 whole entry C591W, chain 1 of 2) above, with W591C, Q623H counted along it
flPOT1 Q623H;TPP1(87), sequence (Q96AP0 whole entry, chain 2 of 2): as the sequence (Q96AP0 whole entry, chain 2 of 2) above

flPOT1 P446Q = target: T2, flPOT1 P446Q (Homo sapiens, UniProt Q9NUX5 1-634, P446Q); test: as above; conditions: protein: recombinant; tags: N-terminal His6-pMocr, TEV-cleaved; label: 5' 6-FAM; single strand
T2 sequence: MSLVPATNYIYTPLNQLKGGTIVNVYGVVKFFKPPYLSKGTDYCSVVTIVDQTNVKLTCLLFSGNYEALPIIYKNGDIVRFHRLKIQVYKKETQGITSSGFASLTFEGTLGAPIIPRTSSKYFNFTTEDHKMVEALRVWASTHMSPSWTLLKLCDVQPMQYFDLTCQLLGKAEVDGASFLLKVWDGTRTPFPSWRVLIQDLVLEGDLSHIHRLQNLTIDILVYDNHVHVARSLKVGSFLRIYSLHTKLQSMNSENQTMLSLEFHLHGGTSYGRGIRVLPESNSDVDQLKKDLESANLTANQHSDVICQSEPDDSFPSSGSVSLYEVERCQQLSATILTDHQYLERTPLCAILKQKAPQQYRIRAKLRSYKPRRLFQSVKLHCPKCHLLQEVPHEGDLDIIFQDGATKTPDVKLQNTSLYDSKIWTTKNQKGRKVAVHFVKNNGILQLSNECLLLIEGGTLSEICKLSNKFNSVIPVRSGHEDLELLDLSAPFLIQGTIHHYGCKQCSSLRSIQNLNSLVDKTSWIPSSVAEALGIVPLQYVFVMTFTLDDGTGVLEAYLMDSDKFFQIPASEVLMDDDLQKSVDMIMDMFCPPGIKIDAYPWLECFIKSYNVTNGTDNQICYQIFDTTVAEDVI

flPOT1 P475L;TPP1(87) = flPOT1 P475L;TPP1(87) (Homo sapiens;Homo sapiens, UniProt Q9NUX5;Q96AP0 1-634;1-458, P475L|); test: as above; conditions: protein: recombinant;recombinant, tags: N-terminal His6-pMocr, TEV-cleaved;N-terminal His6-MBP, copies: 1;1, label: 5' 6-FAM, single strand
flPOT1 P475L;TPP1(87), sequence (Q9NUX5 whole entry P475L, chain 1 of 2): as the sequence (Q9NUX5 whole entry C591W, chain 1 of 2) above, with P475L, W591C counted along it
flPOT1 P475L;TPP1(87), sequence (Q96AP0 whole entry, chain 2 of 2): as the sequence (Q96AP0 whole entry, chain 2 of 2) above

flPOT1 WT;TPP1(87) = flPOT1 WT;TPP1(87) (Homo sapiens;Homo sapiens, UniProt Q9NUX5;Q96AP0 1-634;1-458, |); test: as above; conditions: protein: recombinant;recombinant, tags: N-terminal His6-pMocr, TEV-cleaved;N-terminal His6-MBP, copies: 1;1, label: 5' 6-FAM, single strand
flPOT1 WT;TPP1(87), sequence (Q9NUX5 whole entry, chain 1 of 2): as the sequence (Q9NUX5 whole entry C591W, chain 1 of 2) above, with W591C counted along it
flPOT1 WT;TPP1(87), sequence (Q96AP0 whole entry, chain 2 of 2): as the sequence (Q96AP0 whole entry, chain 2 of 2) above

POT1C;TPP1(PBD) = POT1C;TPP1(PBD) (Homo sapiens;Homo sapiens, UniProt Q9NUX5;Q96AP0 330-634;169-251, |); test: fluorescence polarization; up to 5 uM protein; FP: 20 mM Hepes pH 7.5, 100 mM KCl, 2 mM MgCl2, 1 mM EDTA, 2 mM DTT, 1 mg/ml BSA, 5% glycerol, 75 nM polyT50 competitor, 2.5 nM probe, room temperature 30 min; conditions: protein: recombinant;recombinant; tags: N-terminal His6-pMocr, TEV-cleaved;N-terminal His6, TEV-cleaved; copies: 1;1; label: 5' 6-FAM; single strand
POT1C;TPP1(PBD), sequence (Q96AP0 169-251, one chain of several): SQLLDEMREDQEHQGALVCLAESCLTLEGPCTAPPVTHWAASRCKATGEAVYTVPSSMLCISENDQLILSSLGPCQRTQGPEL

B1: telomeric 18mer (TTAGGG)3 (ssDNA)
DNA: TTAGGGTTAGGGTTAGGG
flPOT1 C591W;TPP1(87)
  Kd: 15.6 ± 2.5 nM
POT1C
  binding result: no binding
flPOT1 Q623H;TPP1(87)
  Kd: 8.9 ± 1 nM
flPOT1 P446Q
  Kd: ~20 nM
flPOT1 P475L;TPP1(87)
  Kd: 10.7 ± 1.4 nM
flPOT1 WT;TPP1(87)
  Kd: ~5.8 nM
POT1C;TPP1(PBD)
  binding result: no binding
